Results as given in patent publication CN114652851A (STONE BIOPHARMACEUTICAL CO LTD, dated 2022).

Molecular target: T1, Human TROP2蛋白 (human, UniProt P09758 27-274, limits assumed)
T1 construct: also called 人TROP2
T1 sequence (looked up): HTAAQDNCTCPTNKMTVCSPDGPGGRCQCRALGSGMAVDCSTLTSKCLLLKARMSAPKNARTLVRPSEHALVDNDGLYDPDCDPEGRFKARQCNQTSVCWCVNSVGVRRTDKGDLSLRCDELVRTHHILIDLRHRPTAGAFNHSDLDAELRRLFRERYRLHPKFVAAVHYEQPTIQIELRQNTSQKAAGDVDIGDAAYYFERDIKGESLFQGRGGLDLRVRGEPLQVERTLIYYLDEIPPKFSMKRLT
Test: ELISA, TROP2 protein incubated with antibody dilutions, goat anti-human IgG (H+L) secondary antibody

binding result: binds
B1: SY02人源化抗体 (人源化抗TROP2抗体SY02) (antibody, human IgG1, kappa, V domains shown)
VH: QVQLVQSGAEVKKPGSSVKVSCKASGYTFTDYSINWVRQAPGQGLEWMGVISTYYGDASYNQKFKGRVTITADESTSTAYMELSSLRSEDTAVYYCARYGDGYNQFDYWGQGTLVTVSS
VL: DIQMTQSPSSLSASVGDRVTITCRVSESVDSYGNNFMHWYQQKPGKAPKLLIYRASNLESGVPSRFSGSGSGTDFTFTISSLQPEDIATYYCQQSYEDPYTFGGGTKLEIKR
notes: also called 裸抗SY02
